In patent publication US20210340173A1:

How the values were obtained:
[1] = biological target: CCR5-RLuc8 on CHO-CCR5-RLuc8/YFP-CAAX cells (UniProt P51681); assay: cell-based or functional assay
CCR5 on HEK-CCR5 cells = CCR5 on HEK-CCR5 cells (UniProt P51681); assay: cell-based or functional assay

| Substance | CCR5 internalization (bystander BRET) at 300 nM (top of the scale) [1] [%] | Ca2+ flux signaling at 300 nM on HEK-CCR5 cells (top of the scale) (CCR5 on HEK-CCR5 cells) [%] | CCR5 internalization (bystander BRET) at 300 nM (bottom of the scale) [1] [%] | Ca2+ flux signaling at 300 nM on HEK-CCR5 cells (bottom of the scale) (CCR5 on HEK-CCR5 cells) [%] |
| --- | --- | --- | --- | --- |
| PSC-RANTES reference standard (ligand) | 100 | 100 |  |  |
| 5P12-RANTES reference standard (from UniProt P13501 34-91) (ligand) |  |  | 0 | 0 |
